Data: patent US11001838B2, “Platform for screening phosphomevalonate decarboxylase” (The Regents of the University of California, priority 2017, dated 2021)
Substitutions are numbered along the chain they refer to. Names may count otherwise. “And” between values parts separate entries of the source, which are not always exact repeats. Equal entries are not always repeated.

What was measured:
[1] = system: DH1; assay: Fosmidomycin sensitivity of E. coli strain DH1; format: cell-based
Procedure: Fosmidomycin sensitivity was tested by introducing various amounts of fosmidomycin into DH1, BW25113 and BL21, three E. coli strains commonly used for microbial metabolic engineering. […] At higher concentrations of fosmidomycin, cell death was accelerated in DH1, supported by a fast reduction in optical density (OD) at 600 nm after approximately two hours of exposure to fosmidomycin. On the other hand, both BL21 and BW25113 continued to grow for approximately four hours when exposed to equivalent fosmidomycin levels. Therefore, DH1 was selected as a host strain to screen PMD mutants for improved MVAP decarboxylation activity and subsequent isopentenol production in this study.

[2] = substrate: C[C@@](O)(CCOP(=O)(O)O)CC(=O)O; assay: purified protein, by the assay type; details: other: MVAP 0.100-4.0 mM, 4 mM ATP, pH 7.5, brackets: standard error
Procedure: This turnover number (kobs) depends upon each mutant's kcat, KM, and KI, yielding a more accurate assessment of the turnover conditions in vivo (Kang et al., 2016).
In vitro enzyme kinetics of PMDsc were performed as described in the previous study (Kang et al., 2016). Briefly, enzymatic activity was determined by a spectrophotometric assay quantifying ADP product formation via the pyruvate kinase/lactate dehydrogenase coupled enzyme assay. Assay mixtures were prepared in 150 μL total volume containing 50 mM HEPES-KOH (pH 7.5), 10 mM MgCl2, 400 μM phosphoenolpyruvate, 400 μM NADH, 4 mM ATP, and 25 U of pyruvate kinase/lactate dehydrogenase. The reaction was initiated by enzyme after incubating PMDsc substrate and cofactor for fifteen minutes with coupled assay components. The MVAP was varied from 0.100-4.0 mM, and the reaction velocity was determined by monitoring the absorbance at 340 nm in a Spectramax 384plus microplate reader (Molecular Devices, USA). To obtain kinetic data relevant to non-competitive substrate inhibition, MVAP was varied from 0.100-100 mM. Enzyme concentration (ε=56,630 M^−1 cm^−1) was determined spectrophotometrically at 280 nm with a NanoDrop ND-1000 spectrophotometer. kcat and KM were derived for PMDsc mutants by fitting the initial velocities measured from 0.100-4.0 mM MVAP to the Michaelis-Menten equation; KI was determined for select mutants by fitting initial velocities measured from 0.100-100 mM MVAP to the non-competitive substrate inhibition equation. All kinetic analysis was performed in Graphpad Prism, version 7.0a.

[3] = system: E. coli DH1; assay: Isopentenol production in E. coli via IPP-bypass MVA pathway (GC-FID); format: cell-based, Escherichia coli
[4] = system: E. coli DH1; assay: Growth of E. coli DH1 under the screening conditions (MEP pathway blocked by fosmidomycin, IPP-bypass pathway + IPK); details: for growth under fosmidomycin selection pressure: screening platform
[5] = cited from earlier work; for activity of WT for phosphomevalonate (MVAP): previous study (Kang 2015)
[6] = substrate: C[C@@](O)(CCOP(=O)(O)O)CC(=O)O; assay: In vitro kinetics of MVAP decarboxylation by PMDsc M212Q (coupled assay); format: biochemical, Saccharomyces cerevisiae; details: other: MVAP 0.100-4.0 mM, 4 mM ATP, pH 7.5, brackets: standard error
[7] = substrate: C[C@@](O)(CCOP(=O)(O)O)CC(=O)O; assay: In vitro kinetics of MVAP decarboxylation by PMDsc Y19H (coupled assay); format: biochemical, Saccharomyces cerevisiae; details: other: MVAP 0.100-4.0 mM, 4 mM ATP, pH 7.5, brackets: standard error
[8] = substrate: C[C@@](O)(CCOP(=O)(O)O)CC(=O)O; assay: In vitro kinetics of MVAP decarboxylation by PMDsc I145A (coupled assay); format: biochemical, Saccharomyces cerevisiae; details: other: MVAP 0.100-4.0 mM, 4 mM ATP, pH 7.5, brackets: standard error
[9] = substrate: C[C@@](O)(CCOP(=O)(O)O)CC(=O)O; assay: In vitro kinetics of MVAP decarboxylation by PMDsc S186C (coupled assay); format: biochemical, Saccharomyces cerevisiae; details: other: MVAP 0.100-4.0 mM, 4 mM ATP, pH 7.5, brackets: standard error
[10] = substrate: C[C@@](O)(CCOP(=O)(O)O)CC(=O)O; assay: In vitro kinetics of MVAP decarboxylation by PMDsc R147K (coupled assay); format: biochemical, Saccharomyces cerevisiae; details: other: MVAP 0.100-4.0 mM, 4 mM ATP, pH 7.5, brackets: standard error
[11] = In vitro enzyme kinetics of PMDsc variants (pyruvate kinase/lactate dehydrogenase coupled assay); format: biochemical
[12] = system: E. coli DH1; details: Kang et al., 2016; cited from earlier work
[13] = substrate: C[C@@](O)(CCOP(=O)(O)O)CC(=O)O; assay: In vitro kinetics of MVAP decarboxylation by PMDsc K22Y (coupled assay); format: biochemical, Saccharomyces cerevisiae; details: other: MVAP 0.100-4.0 mM, 4 mM ATP, pH 7.5, brackets: standard error
[14] = text and figure legends, 48 hours after induction
[15] = 10-fold higher inducer concentration (100 nM aTc)
[16] = Table 2, screening conditions, standard deviation in brackets
[17] = compared with wild type or library mutants
[18] = Table 2, MVAP 0.100-4.0 mM, standard error in brackets
[19] = Table 2, MVAP, standard error in brackets

## O=CN(O)CCCP(=O)(O)O [fosmidomycin]
[1]; 10 μM fosmidomycin
  growth on fosmidomycin: no growth
[1]; higher concentrations of fosmidomycin
  exposure time until fast reduction in OD at 600 nm: approximately two

B1: Saccharomyces cerevisiae diphosphomevalonate decarboxylase (PMDsc), wild type, SEQ ID NO: 1 (Saccharomyces cerevisiae S288C) (protein)
chain: MTVYTASVTAPVNIATLKYWGKRDTKLNLPTNSSISVTLSQDDLRTLTSAATAPEFERDTLWLNGEPHSIDNERTQNCLRDLRQLRKEMESKDASLPTLSQWKLHIVSENNFPTAAGLASSAAGFAALVSAIAKLYQLPQSTSEISRIARKGSGSACRSLFGGYVAWEMGKAEDGHDSMAVQIADSSDWPQMKACVLVVSDIKKDVSSTQGMQLTVATSELFKERIEHVVPKRFEVMRKAIVEKDFATFAKETMMDSNSFHATCLDSFPPIFYMNDTSKRIISWCHTINQFYGETIVAYTFDAGPNAVLYYLAENESKLFAFIYKLFGSVPGWDKKFTTEQLEAFNHQFESSNFTARELDLELQKDVARVILTQVGSGPQETNESLIDAKTGLPKE
[2]
  Km: 2.3 ± 0.2 mM
  kcat: 0.15 (0.01) sec^−1
  kcat/Km: 0.066 (0.007) mM^−1 sec^−1
[3]
  48 hr Titer (isopentenol): 475 (40) mg/L and 475 mg/L
[3]; [14]
  isopentenol titer: 475.1 mg/L
[3]; text and figure legends, 48 hours after induction, listed as wild type
  isopentenol titer: 475 mg/L
[4]; [15]
  Growth rate: 0.83±0.01 hr^1
[4]; FIG. 6 legend
  growth rate (reference line FIG. 6): 0.4
[4]; [16]
  Growth rate: 0.39 (0.02) hr^−1
[4]; Table 3
  Growth rate: 0.39 h⁻¹
[4]; screening conditions
  Growth rate: 0.4 h⁻¹

B2: K22M: PMDsc mutant K22M with decreased activity, previous study (protein)
chain: B1 chain with K22M
[5]
  activity of WT for phosphomevalonate (MVAP): 25%
[4]; [15]
  Growth rate: 0.83±0.01 hr^1
[4]
  growth under fosmidomycin selection pressure: decreased growth rates relative to wild type

B3: S155E (protein)
chain: B1 chain with S155E
[4]
  growth under fosmidomycin selection pressure: impaired growth

B4: Saccharomyces cerevisiae diphosphomevalonate decarboxylase (PMDsc, SEQ ID NO: 1) variant M212Q (Saccharomyces cerevisiae S288C; M212Q) (protein)
chain: B1 chain with M212Q
notes: His tag; made in house; host or cells: E. coli Rosetta (DE3)
[6]
  Km: 0.7 (0.2) mM
  kcat: 0.35 (0.02) sec^−1
  kcat/Km: 0.5 (0.1) mM^−1 sec^−1
[3]
  48 hr Titer (isopentenol): 601 (76) mg/L
[3]; [17]
  isopentenol titer: significantly increase isopentenol titer
[4]; [16]
  Growth rate: 0.09 (0.01) hr^−1

B5: Saccharomyces cerevisiae diphosphomevalonate decarboxylase (PMDsc, SEQ ID NO: 1) variant R74G (Saccharomyces cerevisiae S288C; R74G) (protein)
chain: B1 chain with R74G
[2]
  Km: 3.4 (1.0) mM
  kcat: 0.14 (0.02) sec^−1
  kcat/Km: 0.04 (0.01) mM^−1 sec^−1
[3]
  48 hr Titer (isopentenol): 975 (96) mg/L and 975 mg/L
[4]; [16]
  Growth rate: 0.81 (0.03) hr^−1
[4]; Table 3
  Growth rate: 0.81 h⁻¹

B6: Saccharomyces cerevisiae diphosphomevalonate decarboxylase (PMDsc, SEQ ID NO: 1) variant Y19H (Saccharomyces cerevisiae S288C; Y19H) (protein)
chain: B1 chain with Y19H
notes: as for B4
[7]
  Km: 0.35 (0.02) mM
  kcat: 0.27 (0.01) sec^−1
  kcat/Km: 0.78 (0.06) mM^−1 sec^−1
[3]
  48 hr Titer (isopentenol): 388 (9) mg/L
[3]; [17]
  isopentenol titer: significantly decreased isopentenol titers
[4]; [16]
  Growth rate: 0.22 (0.01) hr^−1

B7: Saccharomyces cerevisiae diphosphomevalonate decarboxylase (PMDsc, SEQ ID NO: 1) variant I145A (Saccharomyces cerevisiae S288C; I145A) (protein)
chain: B1 chain with I145A
notes: as for B4
[8]
  Km: 2 (1) mM
  kcat: 0.029 (0.004) sec^−1
  kcat/Km: 0.01 (0.01) mM^−1 sec^−1
[3]
  48 hr Titer (isopentenol): 623 (140) mg/L
[4]; [16]
  Growth rate: 0.17 (0.00) hr^−1

B8: Saccharomyces cerevisiae diphosphomevalonate decarboxylase (PMDsc, SEQ ID NO: 1) variant S186C (Saccharomyces cerevisiae S288C; S186C) (protein)
chain: B1 chain with S186C
notes: as for B4
[9]
  Km: 0.8 (0.2) mM
  kcat: 0.07 (0.01) sec^−1
  kcat/Km: 0.08 (0.02) mM^−1 sec^−1
[3]
  48 hr Titer (isopentenol): 596 (110) mg/L
[4]; [16]
  Growth rate: 0.30 (0.02) hr^−1

B9: E144D (protein)
chain: B1 chain with E144D
[3]; [17]
  isopentenol titer: increased isopentenol production titers

B10: S208E: inactive PMDsc mutant, negative control (protein)
chain: B1 chain with S208E
[5]; Kang et al., 2016
  activity toward MVAP: inactive toward MVAP
[5]
  activity of WT for phosphomevalonate (MVAP): not detectible
[4]
  growth under fosmidomycin selection pressure: none of three IPK-expressing DH1 strains (SP4, SP5 and SP6) could grow

B11: Saccharomyces cerevisiae diphosphomevalonate decarboxylase (PMDsc, SEQ ID NO: 1) variant R147K (Saccharomyces cerevisiae S288C; R147K) (protein)
chain: B1 chain with R147K
notes: as for B4
[10]
  Km: 0.5 (0.1) mM
  kcat: 0.149 (0.006) sec^−1
  kcat/Km: 0.32 (.09) mM^−1 sec^−1
[3]
  48 hr Titer (isopentenol): 793 (22) mg/L
[3]; [17]
  isopentenol titer: increased isopentenol production titers
[4]; [16]
  Growth rate: 0.56 (0.02) hr^−1

B12: R74G-R147K-Q140L: PMDsc triple mutant (protein)
chain: B1 chain with R74G, Q140L, R147K
[11]; [18]
  kcat: 0.06 (0.01) sec^−1
[11]; [19]
  Km: 2000 µM
[3]
  48 hr Titer (isopentenol): 401 (10) mg/L

B13: T209D (protein)
chain: B1 chain with T209D
[12]
  isopentenol titer in E. coli: did not significantly change the isopentenol titer

B14: Q140L (protein)
chain: B1 chain with Q140L
[3]; [17]
  isopentenol titer: increased isopentenol production titers

B15: R74G-E144D (protein)
chain: B1 chain with R74G, E144D
[3]
  isopentenol titer relative to wild type: 1.6 fold

B16: V230E: PMDsc mutant V230E (protein)
chain: B1 chain with V230E
[11]; MVAP up to 100 mM, read-out: KI (substrate inhibition)
  Ki: 10 mM
[11]; [18]
  kcat: 0.07 (0.01) sec^−1
[11]; [19]
  Km: 800 µM
[11]; Table 3
  Km: 800 µM
  kcat: 0.07 s⁻¹
[11]; Table 3, observed turnover number calculated at 100 mM MVAP
  kobs: 0.006 s⁻¹
[3]
  48 hr Titer (isopentenol): 278 (91) mg/L and 278 mg/L
[4]; [16]
  Growth rate: 0.21 (0.18) hr^−1
[4]; Table 3
  Growth rate: 0.2 h⁻¹

B17: K22Y: PMDsc mutant K22Y (protein)
chain: B1 chain with K22Y
[3]
  48 hr Titer (isopentenol): 22 (8) mg/L
[3]; [14]
  isopentenol titer: 22 ± 8 mg/L
[4]; [16]
  Growth rate: 0.13 (0.11) hr^−1

B18: R74G-R147K: PMDsc double mutant (protein)
chain: B1 chain with R74G, R147K
[11]; [18]
  kcat: 0.22 (0.01) sec^−1
[11]; [19]
  Km: 530 µM
[3]
  isopentenol titer relative to wild type: 1.9 fold
  48 hr Titer (isopentenol): 909 (25) mg/L
[4]; [16]
  Growth rate: 0.84 (0.04) hr^−1

B19: Saccharomyces cerevisiae diphosphomevalonate decarboxylase (PMDsc, SEQ ID NO: 1) variant K22Y (Saccharomyces cerevisiae S288C; K22Y) (protein)
chain: B1 chain with K22Y
notes: as for B4
[13]
  Km: 1.3 (0.3) mM
  kcat: 0.09 (0.01) sec^−1
  kcat/Km: 0.12 (0.03) mM^−1 sec^−1
